Experiments:
Cbp1;Cren7 [1] = target: T1, Cbp1;Cren7 (Saccharolobus (Sulfolobus) solfataricus …, UniProt Q97ZW9;Q97ZE3 1-150;1-60, |); test: EMSA; 12.5 nM Cbp1, 3.125-25 nM Cren7; weaker Cren7 affinity than CRISPR A; EMSA: 800 pM DNA, 10 mM MOPS pH 6.5, 100 mM KCl, 10 mM MgCl2, 2 µg BSA, 10% glycerol, 5 mM DTT, 75 °C 5 min; long templates: 10 mM MOPS pH 6.5, 10 mM MgCl2, 105 mM KCl, 10% glycerol, 10 mM DTT, 5 µg/ml heparin, 2 mM spermidine, 65 °C; conditions: protein: recombinant;recombinant; tags: ;; copies: 1;2; label: 5'-32P; blunt
T1 sequence 1: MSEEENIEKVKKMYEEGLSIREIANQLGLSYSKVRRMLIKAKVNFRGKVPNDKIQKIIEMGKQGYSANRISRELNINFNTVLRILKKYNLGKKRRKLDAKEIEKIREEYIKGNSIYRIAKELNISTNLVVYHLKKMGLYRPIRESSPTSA
T1 sequence 2: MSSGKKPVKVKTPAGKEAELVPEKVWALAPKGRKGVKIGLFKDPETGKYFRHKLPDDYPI

Cbp1;Cren7 [2] = target: T1, Cbp1;Cren7; test: EMSA; 12.5 nM Cbp1, 3.125-25 nM Cren7; EMSA: 800 pM DNA, 10 mM MOPS pH 6.5, 100 mM KCl, 10 mM MgCl2, 2 µg BSA, 10% glycerol, 5 mM DTT, 75 °C 5 min; long templates: 10 mM MOPS pH 6.5, 10 mM MgCl2, 105 mM KCl, 10% glycerol, 10 mM DTT, 5 µg/ml heparin, 2 mM spermidine, 65 °C; conditions: protein: recombinant;recombinant; tags: ;; copies: 1;2; label: 5'-32P; blunt
Cbp1;Cren7 [3] = target: T1, Cbp1;Cren7; test: EMSA; 12.5 nM Cbp1, 3.125-25 nM Cren7; second Cren7 at higher concentration; EMSA: 800 pM DNA, 10 mM MOPS pH 6.5, 100 mM KCl, 10 mM MgCl2, 2 µg BSA, 10% glycerol, 5 mM DTT, 75 °C 5 min; long templates: 10 mM MOPS pH 6.5, 10 mM MgCl2, 105 mM KCl, 10% glycerol, 10 mM DTT, 5 µg/ml heparin, 2 mM spermidine, 65 °C; conditions: protein: recombinant;recombinant; tags: ;; copies: 1;2; label: 5'-32P; blunt
Cbp1 [4] = target: T2, Cbp1 (Saccharolobus (Sulfolobus) solfataricus …, UniProt Q97ZW9 1-150); test: EMSA; 12.5 nM Cbp1; stronger than CRISPR A; EMSA: 800 pM DNA, 10 mM MOPS pH 6.5, 100 mM KCl, 10 mM MgCl2, 2 µg BSA, 10% glycerol, 5 mM DTT, 75 °C 5 min; long templates: 10 mM MOPS pH 6.5, 10 mM MgCl2, 105 mM KCl, 10% glycerol, 10 mM DTT, 5 µg/ml heparin, 2 mM spermidine, 65 °C; conditions: protein: recombinant; label: 5'-32P; blunt
T2 sequence: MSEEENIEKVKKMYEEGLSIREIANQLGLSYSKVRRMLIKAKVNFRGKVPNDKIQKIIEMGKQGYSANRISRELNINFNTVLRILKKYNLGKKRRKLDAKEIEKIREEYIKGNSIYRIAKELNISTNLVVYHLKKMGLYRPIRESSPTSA

Cbp1;Cren7 [5] = target: T1, Cbp1;Cren7; test: EMSA; 12.5 nM Cbp1, 12.5-25 nM Cren7; two Cren7 recruited; EMSA: 800 pM DNA, 10 mM MOPS pH 6.5, 100 mM KCl, 10 mM MgCl2, 2 µg BSA, 10% glycerol, 5 mM DTT, 75 °C 5 min; long templates: 10 mM MOPS pH 6.5, 10 mM MgCl2, 105 mM KCl, 10% glycerol, 10 mM DTT, 5 µg/ml heparin, 2 mM spermidine, 65 °C; conditions: protein: recombinant;recombinant; tags: ;; copies: 1;2; label: 5'-32P; blunt
Cbp1 [6] = target: T2, Cbp1; test: EMSA; WT reference; EMSA: 800 pM DNA, 10 mM MOPS pH 6.5, 100 mM KCl, 10 mM MgCl2, 2 µg BSA, 10% glycerol, 5 mM DTT, 75 °C 5 min; long templates: 10 mM MOPS pH 6.5, 10 mM MgCl2, 105 mM KCl, 10% glycerol, 10 mM DTT, 5 µg/ml heparin, 2 mM spermidine, 65 °C; conditions: protein: recombinant; label: 5'-32P; blunt
Cbp1 ΔHTH3 = target: T3, Cbp1 ΔHTH3 (S. solfataricus P2, UniProt Q97ZW9 1-87+136-150, internal_change); test: EMSA; 80 nM; no apparent effect of mutation; EMSA: 800 pM DNA, 10 mM MOPS pH 6.5, 100 mM KCl, 10 mM MgCl2, 2 µg BSA, 10% glycerol, 5 mM DTT, 75 °C 5 min; long templates: 10 mM MOPS pH 6.5, 10 mM MgCl2, 105 mM KCl, 10% glycerol, 10 mM DTT, 5 µg/ml heparin, 2 mM spermidine, 65 °C; conditions: protein: recombinant; label: 5'-32P; blunt
T3 sequence: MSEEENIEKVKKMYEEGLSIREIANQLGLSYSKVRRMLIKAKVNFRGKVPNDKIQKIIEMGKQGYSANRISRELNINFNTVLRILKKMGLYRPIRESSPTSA

Cbp1 ΔHTH1 = target: T4, Cbp1 ΔHTH1 (S. solfataricus P2, UniProt Q97ZW9 1-1+51-150, internal_change); test: EMSA; 160 nM; unaffected by mutation vs ΔHTH1 on WT repeat; EMSA: 800 pM DNA, 10 mM MOPS pH 6.5, 100 mM KCl, 10 mM MgCl2, 2 µg BSA, 10% glycerol, 5 mM DTT, 75 °C 5 min; long templates: 10 mM MOPS pH 6.5, 10 mM MgCl2, 105 mM KCl, 10% glycerol, 10 mM DTT, 5 µg/ml heparin, 2 mM spermidine, 65 °C; conditions: protein: recombinant; label: 5'-32P; blunt
T4 sequence: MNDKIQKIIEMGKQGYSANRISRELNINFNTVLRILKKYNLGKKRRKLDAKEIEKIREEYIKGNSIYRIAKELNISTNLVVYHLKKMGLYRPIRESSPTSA

Cbp1 [7] = target: T2, Cbp1; test: EMSA; not reduced vs WT repeat; EMSA: 800 pM DNA, 10 mM MOPS pH 6.5, 100 mM KCl, 10 mM MgCl2, 2 µg BSA, 10% glycerol, 5 mM DTT, 75 °C 5 min; long templates: 10 mM MOPS pH 6.5, 10 mM MgCl2, 105 mM KCl, 10% glycerol, 10 mM DTT, 5 µg/ml heparin, 2 mM spermidine, 65 °C; conditions: protein: recombinant; label: 5'-32P; blunt

B1: CRISPR D repeat, 20 bp flanks (dsDNA)
DNA 1: AACTAACAAATATACGCCTTGATAATCTCTTATAGAATTGAAAGTCAATTTGTGAAACTTGTCC
DNA 2: GGACAAGTTTCACAAATTGACTTTCAATTCTATAAGAGATTATCAAGGCGTATATTTGTTAGTT
binding result (Cbp1;Cren7 [1]): binds

B2: ISC1229 non-canonical Cbp1 binding site (dsDNA)
DNA 1: AACTTCAAGCATAGTGTCAACTAAGATTGCCACGTGAATTGAAAGGATTCACGTGGCGATTTTGG
DNA 2: CCAAAATCGCCACGTGAATCCTTTCAATTCACGTGGCAATCTTAGTTGACACTATGCTTGAAGTT
binding result (Cbp1;Cren7 [2]): binds

B3: CRISPR A repeat, 20 bp flanks (Fig. 1e) (dsDNA)
DNA 1: CATCTTCTCTCATCACCTTCGATTAATCCCAAAAGGAATTGAAAGAATGTATAAAGGTAACCAGG
DNA 2: CCTGGTTACCTTTATACATTCTTTCAATTCCTTTTGGGATTAATCGAAGGTGATGAGAGAAGATG
binding result (Cbp1;Cren7 [3]): binds

B4: CRISPR F repeat, 20 bp flanks (dsDNA)
DNA 1: AAAATTATTGACAAAAATAGGCTAATCTACTATAGAATTGAAAGCTACACCGATTCCGATACCC
DNA 2: GGGTATCGGAATCGGTGTAGCTTTCAATTCTATAGTAGATTAGCCTATTTTTGTCAATAATTTT
binding result (Cbp1;Cren7 [1]): binds | binding result (Cbp1 [4]): binds

B5: CRISPR A repeat 1, 2 bp downstream (dsDNA)
DNA 1: GGAAGTATAAAAACACAACAGATTAATCCCAAAAGGAATTGAAAGGA
DNA 2: TCCTTTCAATTCCTTTTGGGATTAATCTGTTGTGTTTTTATACTTCC
binding result (Cbp1;Cren7 [5]): binds

B6: CRISPR A repeat 1, 5 bp flanks (WT) (dsDNA)
DNA 1: CAACAGATTAATCCCAAAAGGAATTGAAAGGAACT
DNA 2: AGTTCCTTTCAATTCCTTTTGGGATTAATCTGTTG
binding result (Cbp1 [6]): binds

B7: CRISPR A repeat 1 T19G/T20G (dsDNA)
DNA 1: CAACAGATTAATCCCAAAAGGAAGGGAAAGGAACT
DNA 2: AGTTCCTTTCCCTTCCTTTTGGGATTAATCTGTTG
binding result (Cbp1 ΔHTH3): binds

B8: CRISPR A repeat 1 A22C/A23C (dsDNA)
DNA 1: CAACAGATTAATCCCAAAAGGAATTGCCAGGAACT
DNA 2: AGTTCCTGGCAATTCCTTTTGGGATTAATCTGTTG
binding result (Cbp1 ΔHTH3): binds

B9: CRISPR A repeat 1 A6C/T7G (dsDNA)
DNA 1: CAACAGATTACGCCCAAAAGGAATTGAAAGGAACT
DNA 2: AGTTCCTTTCAATTCCTTTTGGGCGTAATCTGTTG
binding result (Cbp1 ΔHTH1): binds

B10: CRISPR A repeat 1 A13C/A14C (A13C/T14G in text) (dsDNA)
DNA 1: CAACAGATTAATCCCAACCGGAATTGAAAGGAACT
DNA 2: AGTTCCTTTCAATTCCGGTTGGGATTAATCTGTTG
binding result (Cbp1 [7]): binds

B11: CRISPR A repeat 1, 20 bp downstream (dsDNA)
DNA 1: GGAAGTATAAAAACACAACAGATTAATCCCAAAAGGAATTGAAAGGAACTAGCTTATAGTTTAGA
DNA 2: TCTAAACTATAAGCTAGTTCCTTTCAATTCCTTTTGGGATTAATCTGTTGTGTTTTTATACTTCC
binding result (Cbp1;Cren7 [5]): binds

Source: PMC10883916, “Cbp1 and Cren7 form chromatin-like structures that ensure efficient transcription of long CRISPR arrays”
